The Km is the concentration of substrate that gives half-maximal velocity.

Substrate in the series: CC(=O)OC[C@H](N)C(=O)O
Kind of series: purified protein. Conditions: 15 mM Na2S, MOPS, 37 °C, no glycerol.

B1: SaCysK (Staphylococcus aureus subsp. aureus N315) (protein)
chain: MAQKPVDNITQIIGGTPVVKLRNVVDDNAADVYVKLEYQNPGGSVKDRIALAMIEKAEREGKIKPGDTIVEPTSGNTGIGLAFVCAAKGYKAVFTMPETMSQERRNLLKAYGAELVLTPGSEAMKGAIKKAKELKEEHGYFEPQQFENPANPEVHELTTGPELLQQFEGKTIDAFLAGVGTGGTLSGVGKVLKKEYPNIEIVAIEPEASPVLSGGEPGPHKLQGLGAGFIPGTLNTEIYDSIIKVGNDTAMEMSRRVAKEEGILAGISSGAAIYAAIQKAKELGKGKTVVTVLPSNGERYLSTPLYSFDD
For the protein B1, the Km was found to be 1378 ± 592 µM.

(Values after doi:10.1101/2025.03.26.645513v1.)
